Literature values, collected in patent US8257684B2, “Methods for identifying and targeting autonomic brain regions” (Neurosigma, Inc., priority 2008, dated 2012).
No end group written: not given here.

Target: T1, OX1R (Homo sapiens, UniProt O43613)
T1 sequence (O43613 1-425): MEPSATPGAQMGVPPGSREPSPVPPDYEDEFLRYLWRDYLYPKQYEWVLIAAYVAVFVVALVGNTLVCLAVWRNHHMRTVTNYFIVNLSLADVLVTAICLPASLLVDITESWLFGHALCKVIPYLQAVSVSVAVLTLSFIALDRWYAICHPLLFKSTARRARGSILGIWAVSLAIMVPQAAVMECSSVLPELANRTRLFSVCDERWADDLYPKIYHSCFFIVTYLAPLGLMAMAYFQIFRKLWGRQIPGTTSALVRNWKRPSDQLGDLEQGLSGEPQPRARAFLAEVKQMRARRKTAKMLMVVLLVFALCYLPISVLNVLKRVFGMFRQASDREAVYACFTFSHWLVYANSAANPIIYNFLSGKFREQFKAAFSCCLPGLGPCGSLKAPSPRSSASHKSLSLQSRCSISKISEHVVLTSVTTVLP
Settings: ORXa versus ORXb; Lund et al., Journal of Biological Chemistry

higher affinity of OX1R for ORXa than for ORXb: approximately 10 fold
Substance: Orexin-A (QPLPDCCRQKTCSCRLYELLHGAGNHAAGILTL; not fully specified (residue 1, C-terminus, bridges); cysteine pairing not given here; UniProt O43612 34-66, looked up) [ORXa, ORX molecule produced in the LHA; agonist of OX1R]
